From article PMC2744139 (Nature structural & molecular biology, 2009)

Target: T1, Cdc13 full-length (FL) (S. cerevisiae, UniProt P32797 1-924)
T1 sequence: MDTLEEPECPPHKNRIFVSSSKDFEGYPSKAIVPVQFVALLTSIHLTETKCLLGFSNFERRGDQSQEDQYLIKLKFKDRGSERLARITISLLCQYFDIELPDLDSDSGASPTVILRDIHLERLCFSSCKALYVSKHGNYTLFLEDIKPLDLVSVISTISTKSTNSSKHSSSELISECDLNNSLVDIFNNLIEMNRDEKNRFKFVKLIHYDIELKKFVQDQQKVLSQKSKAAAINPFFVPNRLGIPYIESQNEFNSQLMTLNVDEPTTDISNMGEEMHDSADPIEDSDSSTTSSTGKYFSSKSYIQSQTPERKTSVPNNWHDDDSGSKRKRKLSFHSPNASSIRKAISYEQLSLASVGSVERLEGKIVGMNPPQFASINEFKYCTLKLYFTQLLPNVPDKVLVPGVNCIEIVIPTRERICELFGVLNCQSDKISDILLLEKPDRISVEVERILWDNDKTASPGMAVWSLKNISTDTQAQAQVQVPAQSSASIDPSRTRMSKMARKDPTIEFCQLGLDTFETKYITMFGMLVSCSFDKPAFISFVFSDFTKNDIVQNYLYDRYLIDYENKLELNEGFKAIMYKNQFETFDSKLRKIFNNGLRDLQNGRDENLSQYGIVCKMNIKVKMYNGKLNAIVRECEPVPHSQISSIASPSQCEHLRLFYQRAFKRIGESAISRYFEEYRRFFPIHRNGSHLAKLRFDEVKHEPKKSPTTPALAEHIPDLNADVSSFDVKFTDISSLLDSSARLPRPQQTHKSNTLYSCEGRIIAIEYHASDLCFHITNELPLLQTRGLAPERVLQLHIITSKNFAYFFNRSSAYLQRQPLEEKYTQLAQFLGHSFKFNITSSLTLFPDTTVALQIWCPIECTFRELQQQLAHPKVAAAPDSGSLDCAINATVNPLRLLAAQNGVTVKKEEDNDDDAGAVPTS
Assay: fluorescence polarisation

B1: Hsp82 (yeast Hsp90 molecular chaperone) (natural protein)
chain: not shown
Q: How did the Kd turn out when B1 was run?
A: ~325 nM
